Measurements from paper PMC9079172, “BAG6 prevents the aggregation of neurodegeneration-associated fragments of TDP43” (iScience, 2022).

Biological target: T1, BAG6, wild type, FLAG-tagged, exogenously overexpressed (pRK5-FLAG-Bag6) (UniProt P46379 1-1132)
T1 construct: BAG6, wild type, from pRK5-FLAG-Bag6 (Liu et al., 2014); In HEK293T cells the anti-BAG6 antibody also precipitates endogenous BAG6; also called wild type BAG6; ^fBAG6; source: HEK293T or BAG6-KO HEK293T, transfected, in lysate; not shown: FLAG, N-terminal, kept
T1 sequence (P46379 whole entry): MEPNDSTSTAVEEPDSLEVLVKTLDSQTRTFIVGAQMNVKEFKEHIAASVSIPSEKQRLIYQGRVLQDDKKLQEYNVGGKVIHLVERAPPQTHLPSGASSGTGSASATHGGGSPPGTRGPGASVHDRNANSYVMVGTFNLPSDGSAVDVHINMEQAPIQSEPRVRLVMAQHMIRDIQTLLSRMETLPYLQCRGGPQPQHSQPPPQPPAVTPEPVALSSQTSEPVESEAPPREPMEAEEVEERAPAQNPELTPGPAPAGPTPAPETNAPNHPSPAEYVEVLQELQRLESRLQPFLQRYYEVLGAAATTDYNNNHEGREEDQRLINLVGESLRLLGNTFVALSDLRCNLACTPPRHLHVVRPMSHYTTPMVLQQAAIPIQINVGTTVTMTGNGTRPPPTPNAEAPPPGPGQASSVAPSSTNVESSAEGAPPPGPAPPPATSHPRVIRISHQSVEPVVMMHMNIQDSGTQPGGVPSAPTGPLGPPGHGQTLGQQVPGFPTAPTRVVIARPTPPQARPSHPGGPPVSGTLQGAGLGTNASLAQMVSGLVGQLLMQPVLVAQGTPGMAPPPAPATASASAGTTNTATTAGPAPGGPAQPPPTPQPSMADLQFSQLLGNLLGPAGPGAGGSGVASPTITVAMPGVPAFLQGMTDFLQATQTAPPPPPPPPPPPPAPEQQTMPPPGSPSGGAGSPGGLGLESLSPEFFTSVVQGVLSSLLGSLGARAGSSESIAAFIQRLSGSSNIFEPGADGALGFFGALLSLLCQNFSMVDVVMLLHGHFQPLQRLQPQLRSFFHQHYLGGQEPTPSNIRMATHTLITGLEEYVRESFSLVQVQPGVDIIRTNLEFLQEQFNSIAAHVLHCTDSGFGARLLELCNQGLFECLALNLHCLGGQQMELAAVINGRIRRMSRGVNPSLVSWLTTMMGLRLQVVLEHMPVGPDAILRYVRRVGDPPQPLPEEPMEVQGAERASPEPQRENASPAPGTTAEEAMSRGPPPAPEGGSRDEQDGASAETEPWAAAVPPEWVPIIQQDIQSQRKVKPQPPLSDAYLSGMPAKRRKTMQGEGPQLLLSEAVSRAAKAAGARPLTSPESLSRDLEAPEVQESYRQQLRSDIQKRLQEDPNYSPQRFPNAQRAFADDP
Test: co-IP; anti-BAG6 IP from soluble fractions of HEK293T cells overexpressing the fragments and BAG6 or BAG6ΔUBL; blots with anti-TDP43, anti-FLAG or anti-Myc; lysis/wash buffer 50 mM HEPES pH 7.5, 10% glycerol, 0.05% NP-40, 150 mM NaCl, 4°C
Settings: partners not purified

fold affinity relative to TDP43^247 (densitometry of the co-immunoprecipitate): ~5 fold
B1: TDP43^219 (Val^219-TDP43^f), C-terminal fragment of human TDP43, amino acids 219 - 414, bearing N-terminal Val and a C-terminal FLAG tag (domain or fragment, UniProt Q13148 219-414, looked up)
chain: VVFIPKPFRAFAFVTFADDQIAQSLCGEDLIIKGISVHISNAEPKHNSNRQLERSGRFGGNPGGFGNQGGFGNSRGGGAGLGNNQGSNMGGGMNFGAFSINPAMMAAAQAALQSSWGMMGMLASQQNQSGPSGNNQNQGNMQREPNQAFGSGNNSYSGSNSGAAIGWGSASNAGSGSGFNGGFGSSMDSKSSGWGM
notes: the part up to the last residue of Ub is cut off co-translationally; not shown: FLAG, C-terminal, kept
